Experimental data from the nanobody polyreactivity screen of Harvey et al. (2022).

Experiment: yeast display, Sf9 membrane polyspecificity reagent, FACS + sequencing; frameworks hold sequencing errors
Outline: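 A nanobody's polyreactivity label depends on the gate it was sorted from. Yeast display cells were stained with 10% biotinylated, detergent-solubilized Sf9 membrane reagent for 1 hour at 4 °C, enriched on streptavidin microbeads and sorted by FACS. The low and high (top ~1%) gates were set on anti-HA fluorescence for expression and streptavidin fluorescence for reagent binding.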

Sequence | polyreactivity (PSR sort gate)
QVQLVESGGGLVQAGGSLRLSCAASGFIFYRYARGWYRQAPGKERELVAVISRGGNTYYADSVKGRFTISRDNAKNTVYLQMNSLKPEDTAVYYCNKRLRDSYRLYYYWGQGTQVTVSS | high polyreactivity
QVQLVESGGGLVQAGGSLRLSCAASGLTFIKYAMGWYRQAPGKEREFVADISKRGGTTYYADSVKGRFTISRDNAKNTVYLQMNSLKPEDTAFYYCAARQYLNVYYRYDYWGQGTQVTVSS | high polyreactivity
QVQLVESGGGLVHAGGSLRLSCDASGLTFAYYAMGWYRQAPGKERELVAAISWNGGRTYYADSVKGRFTISRDNAKNTVYLQMNSLKPEDTAVYYCAAQVTSSFYWGQGTQVTVSS | high polyreactivity
QVQLVESGGGLVQAGGSLRLSCAASGSIFRFYAMGWYRQAPGKERELVAAISSGGSTYYADSVKGRFTISRDNAKNTVYLQMKSLKPEDTAVYYCAHGFAQYGLDLDPGDYDYWGQGTQVTVSS | low polyreactivity
QVQLVESAGGLVQAGASLRLSCAASGRIFVRNAMGWYRQAPGKEREMVADITNGGSTNYADSVKGRFTISRDNAKNTVYLQKNRLNPEDTAVYYCNADGFVYDLRARPGWVDYWGQGTQVTVSS | low polyreactivity
QVQLVESGGGLVQAGGSLRLSCAASGSTFGYYAMGWYRQAPGKERELVATITSSGDNTYADSVKGRFTISRDNAKNTVYLQMNSLKPEDTAVYYCNARYRKSSRPVYEPYERYYWGQGTQVTVSS | high polyreactivity
QVQLVESGGGVVQAGGSLRLSCAASGFIFYQYAMGWYRQAPGKERELVAAITSRGGRTYYADSVKGRFTISRDNAKNTVYLQMNSLKPEDTAVYYCAVRKASDYYYWGQGTQVTVSS | high polyreactivity
QDQLVESGGGLVQAGGSLRLSCAASGRIFKSYAMGWYRQAHGKERELVAAISSSGGSTYYADSVKGRFTISRDNAKNTVYLQMNSLKPEDTAVYYCAAYGHYSWSYDYWGQGTQVTVSS | high polyreactivity
QVQLVESGGGLVQAGGSLRLSCAASGSIFPVYAMGWYRQAPGKDRELVAAISFSTGSTYYADSVKGRFTISRDNAKNTVYLQMNSLKPEDTAVFYCAKYDYTDYEYWGQGTQVTVSS | high polyreactivity
QVQLVESGGGLVQAGGSLRLSCAASGSTFQYYDMGWYRQAPGKERELVASITGSGDSTYYADSVKGRFTISRDNAKNTVYLQMNSLKPEDTAVYYCAAQNTWSGDYDYWGQGTQVTVSS | low polyreactivity
QVQLVESGGGLVQAGGSLRLTCAASGSTIGGNPMVCYRHAPGKERELVAAITFSGGSTSYADSVKGRFTISRDNAKNTVYLQMNSLKPEDTAVYYCAASWVYPYDYWRQGTQVTVSS | low polyreactivity
QVQLVESVGGLVQAGGRLRLTCAASGFIFTHYAMVWYRQAPGKERELVAAISWNGGRTYYADSVKGRFTISRDNANITVYLQMNSLKPEDTAVYYCAARIYLSKSFNFWGQGTQVTVSS | high polyreactivity
QVQLVESGGGLVQAGGSLRLSCADSGITFYIYAMGWYRQAPGKERELVATISWSDGRTYYADSVKGRFTISRDNAKNTVYLQMNRLKPEDTAVYYCAADWWYYQFDYEYWGQGTQVTVSS | low polyreactivity
QVQLVETGGGLVQAGGSLRLSCAASGSIFTKYAMGRYRQAPGKERELVAAISWSGVSTYYADSVKGRFTISRDNAKNTVYLLMNSLKPEDTAVYYCNTRRYRSYGTTRYCFWGQGTQVTVSS | high polyreactivity
QVQLVESGGGLVQAGGSLRLSCAASGSTFTWYAMGWYRQAPGKERELVADISYGGGSTYYADSVKGRFTISRDNAKNTVYLQMNSLKPEDTAVYYCAVDDGFAYSYDWTYRYAEYYYWGQGTQVTVSS | low polyreactivity
QVQLVESGGGLVQAGGSLRLSCAASGRIFKINAMGWSRQAPGKERDLVATISYSAGRTYYADSEKGRFTISRDSAKNTVYLQMNSLKPEDTAVYYCAARISSYWPYSLLDYWGQGTQVTVSS | high polyreactivity
QVQLVESGGGLVQAGGSLRLSCAASGRIFTRYVMGWSRQAPGKERELVAAISYRGGRTYYADSVKGRFTISRDNAKNTVYLQMNSLKPEDTAVYYCAVDYTLADVIYDYWGQGTQVTVSS | high polyreactivity
QVQLVESGGGLVQAGGSLRLSCAASGITFYRYAMGWYRQAPGKERELVAAITSGGGRTYYADSVKGRFTISRDNAKNTVYLQMNSLKPEDTAVYYCNAADYTAYGQGEYWGQGTQVTVSS | high polyreactivity
QVQLVESGGGLVQAGGSLRLSCAASGSNFARYAMGWYRQAPGKERELVAAINSTVSTNYADSVNGRFTISRDNPKNTVYLQMNSLKPEDTAVYYCAVDIVRGGRDSWGQGTQVTVSS | low polyreactivity
QVQLVESGGGLVQAGGSLRLSCAASGFTVNNNGMGWYIQAPGKERELVASISSRTTSTYYADSVKGRFTFSRDKAKNTDYFQTNSLKPEDTAVYYCAAQAWWDGEYDYWGQGTQVTVSS | high polyreactivity
QVQLVESGGGLVQAGGSLRLSCAASGSTFYIYAMGWYRQAPGKERELVAAISGRGGSTYYADSVKGRFTISRDNAKNTVYLQMNSLKPEDTAVYYCATSLRVRRSSRDYWGQGTQVTVSS | high polyreactivity
QVQVVESGGGLVQAGGSLRLSCAASGRIFANNAMGWYRQAPGKERELVAAITASSGSTYYADSVKGRFTISRDNAKNTVYFQMNSLKPEDTAFYYCAATLRWGFRWYFGFDYWGQGTQVTVSS | high polyreactivity

Sequence | polyreactivity (PSR sort gate)
QVQLVESGGGLVQAGGSLRLSCAASGSIFRGYAMGWYRQAPGKERELVAVITKSGGRTYYADSVKGRFTISRDNAKNTVYLQMNRLKPEDTAVYYCAKQPGSAYDYWGQGTQVTVSS | high polyreactivity
QVQLVESGGGLVQAGGSLRLSCAASGSIFWSYGMGWYRQAPGKERELVASTRYADSVKGRFTISRDNAKNTVYLQMNSLKPEDTAVYYCNVRYYGYRFGDDYWGQGTQVTVSS | low polyreactivity
QVQLVESGGGLVQAVGTLRLTCAASGITFNVNAMGWYRQEPGKERELVARITTSGGSTSYADSVKGRFTISRDNAYNTVYLQMNSLKPEDTAVYYCAADRARYFSEYDYWGQGTQVTVSS | low polyreactivity
QEQLVESGGGLVQAGGSLGLSCAASGLTFSYYAMRWYRQAPGKERELVAAIDYSGGTTYADSVKGRFTISRDNAKNTVYLQMNSLKPEDTAVYYCAAAPDGWFASGDEYWGQGTQVTVSS | high polyreactivity
QVQLVESGGGLVQAGGSLRLCCAASGFICGKYALGWYRQAAGNEWVLVAAITSDGRTYYADSVKGRFTISRDNPKNTVYVQMNSLKPEDTAVYYCAVDYYWYSYSGYDDYWGQGTQVTVSS | high polyreactivity
QVQLVESGGGLVQAGGSLRLSCAASGRIFFYYAMGWYRQAPGTERELVAAITSGGNTNYADSVKGRFTISRDNAKNTVYLQMNSLKPEDTAVYYCAVDSWEYWRRGIYYYRFYYWGQGTQVTVSS | low polyreactivity
QVQLVESGGRLVQAGGSLLLSCAASGIIFYDYAMGWYRRAPGKERQLVAAITSGGSTNYADSVKGRFTISRDNAKNTVYLQMNSLKPEDTAVYYCAATYWSWISLRWYEYYYWGEGTQVTVSS | low polyreactivity
QVLLVESGGGLVHAGGSLRVSCASSGFTFKENAMGWYRQAPGKERELVAAISSTGGSTYYADSVKGRFTISRDNAKNTVFLLMNSLKPEDTAVYYCAASTYWYDGDYWGQGTQVTVSS | high polyreactivity
QVQLVESGGGLVQAGGSLRLSCAASGRIFNTYAMGWYRQAPAKERELVAAITSSGGSTYYADSVKGRFTISRDNAKNTVYLQMNSLKPEDTAVYYCNAGSLHRRYYYEGDYWGQGTQVTVSS | high polyreactivity
QVQLVESGGGLVQAGGSLRLSCAASGLTFAYYAMGWYIQAPGKERELVAAITWNGGSTYYADSVKGRFTISRDNSKNTVYLQMNSLKPEDTAVYYCAASWGYCYSGRFDYWGQGTEVTVSS | high polyreactivity
QVQLVESGGGLVQAGGSLRLSCAAYGSILLRYAMGWYRQAPGKERELVAAIRTIGASTYYADSVKGRFTISRDNAKNTVYLQMNSLKPEDTAVYYCNGYLAEVLQLGKCRLYDYWGQSTQVTVSS | low polyreactivity
QVQLVESGGGLVQAGGSLRLSCAASGRISSVYAMGWYRQAPGKERELVAAINWRVGSTYYADSVKGRFTISRDNAKNTVYLQMNSLKPEDTAVYYCAVDPVYGIIGSRYDYWGQGTQVTVSS | low polyreactivity
QVQLVETGGRLGQAGGSLRLSCAASGRTFGYNAMGWYRQAPGKERELVAAISWSGTRTYYADSVKWRFTISRDNAKNTVYLQRNSLKPEDTAVYYCAARIAVYGGSYGWFDYWGQGTQVTVSS | high polyreactivity
QVQLVESGGGLVQSGGSLRLSCAASGGTFRSYAMGWYIQAPGKERELVYAIRRSGGSTYYADSVKGRFTISRDNTKNTVYLQMNSLKPEDTAVYYCAARGYNSRRIWKYYYWGQGTQVTVTS | high polyreactivity
QVQIVESGGGLVQAGGSLRFSCAASGRTFGTNTMGWYRQAPGKERELVATISSSSGSTYYADSVKGRFTISRDNAKNTVYLQMNSLKPEDTAVYYCAALSRWRYKRYDYWGQGTQVTVSS | high polyreactivity
QVQLVESGGCLVQAGGSLRLSCAASGRTLGYYTMGWYRQAPGKERELVATITPGGSTSYADSVKGRFTISRDNAKNTVYLQMNSLKPEDTAVYYCARTRPYYLLYSSNFRYDYWGQGTQVTVSS | high polyreactivity
QVQLVESGGGLVQAGGSLRLSCAASGFTFYIYAMGWYRQAPGKERELVAAISSGGGRTYYADSVKGRFTISRDNAKNTVYLQMNSLKPEDTAVYYCAARGRAFSYNNYGSDYWGQGTQVTVSS | high polyreactivity
QVQLVESGGGLVQAGGSLRLSCAASGLTFKFNAMGWYRQAPGKERELVAAISFGGDDTYYADSVKGRFTISRDNAKNTVYLQMNSLKPEDTAVYYCAAEYDTWGYSGRDYWGQGTQVTVSS | low polyreactivity
QVQLVESGGGLVQAGGSLRLSCAASGYIFARYAMGWYRQAPGKERELVASISRRGTSTYYADSVKGRFTISRDNAKNTDYLQMNSLKPEDTAVYYCNKEYYIYRTGTIGERSDMGYWGQGTQVTVSS | high polyreactivity
QVHLVESGGGLVQAGGSLRLSCAASGSTIDRYAMGWYRQAPGKERELVASISKRGGSTYYADSVKGRFTISRDNAKNTVYLQMNSLKPEDTAVYYCAAKWASQYDYWGQGTQVTVSS | high polyreactivity
QVQLVESGGGLIQAGGSRRLSCAASGIIFYPYTMGWYRQARGKERELVAAIRQSGTSTYYADSVKGRFTISRDNAKNTVYLQMNSLKPEDTAVYYCNADDHIYWRKGYDYWGQGTQVTVSS | low polyreactivity
